Here are results for 1 molecule from article PMC7617672, “Oryza genera-specific novel Histone H4 variant predisposes H4 Lysine5 Acetylation marks to modulate salt stress responses”.

Data set [1] addresses rice histone H2A;rice histone H2B;rice histone H3;rice histone H4 (Oryza sativa;Oryza sativa;Oryza …, UniProt A2YMC6;A2WKP5;A2Y533;B7F4Q1 ;;;1-103, |||). The data set is described as follows: EMSA (nucleosome reconstitution, native PAGE); NCP gel: native 6% acrylamide, 0.5x TBE; peptide pull-down: 10 mM Tris pH 8.0, 50 mM NaCl, 5 mM MgCl2, 4 C, 6 h; cryo-EM: 10 mM Tris pH 8.0, 50 mM NaCl, 1 mM EDTA. As to conditions: protein: recombinant;recombinant;recombinant;recombinant; tags: none;none;none;N-terminal MGS extension from vector; chain copies: 2;2;2;2; blunt.

For data set [2], the target named is rice histone H2A;rice histone H2B;rice histone H3;H4.VS (H4.V N-terminal 53 aa fused to H4 C-terminal 50 aa) (Oryza sativa;Oryza sativa;Oryza …, UniProt A2YMC6;A2WKP5;A2Y533;PDB:8Q16_4 ;;;, |||). The data set is described as follows: EMSA (nucleosome reconstitution, native PAGE); mobility shift similar to H4 NCP; NCP gel: native 6% acrylamide, 0.5x TBE; peptide pull-down: 10 mM Tris pH 8.0, 50 mM NaCl, 5 mM MgCl2, 4 C, 6 h; cryo-EM: 10 mM Tris pH 8.0, 50 mM NaCl, 1 mM EDTA. As to conditions: protein: recombinant;recombinant;recombinant;recombinant; tags: none;none;none;none; chain copies: 2;2;2;2; blunt.

B1: Widom 601 NPS (147 bp as stated; 146 nt printed) (dsDNA)
DNA 1: CTGGAGAATCCCGGTGCCGAGGCCGCTCAATTGGTCGTAGACAGCTCTAGCACCGCTTAAACGCACGTACGCGCTGTCCCCCGCGTTTTAACCGCCAAGGGGATTACTCCCTAGTCTCCAGGCACGTGTCACATATATACATCCTG
DNA 2: CAGGATGTATATATGTGACACGTGCCTGGAGACTAGGGAGTAATCCCCTTGGCGGTTAAAACGCGGGGGACAGCGCGTACGTGCGTTTAAGCGGTGCTAGAGCTGTCTACGACCAATTGAGCGGCCTCGGCACCGGGATTCTCCAG
Turning to B1, the binding result in data set [1] and in data set [2] was “binds” in each case.
